In patent US11208452B2:

target: human insulin receptor IR-A (solubilised holoreceptor) (human) (UniProt P06213); assay: competition SPA: displacement of [125I-A14Y]-human insulin from solubilised human IR-A, relative to human insulin standard

| Receptor binding (hIRA) SPA, sup % relative to HI (% relative to HI) | Substance |
| --- | --- |
| 3.13 | A14E, A21G(GAPQ)50, B25H, desB30 human insulin (from UniProt P01308) (ligand) |
| 3.15 | A14E, A21G(GQAP)50, B25H, desB30 human insulin (from UniProt P01308) (ligand) |
| 2.41 | A14E, A21G(GQAP)75, B25H, desB30 human insulin (from UniProt P01308) (ligand) |
| 2.1 | A14E, A21G(GQAP)150, B25H, desB30 human insulin (from UniProt P01308) (ligand) |
| 3 | A14E, A21G(GQEP)50, B25H, desB30 human insulin (from UniProt P01308) (ligand) |
| 6.99 | A21G(GAQ)67, desB30 human insulin (from UniProt P01308) (ligand) |
| 4.85 | A21G(GEH)67, desB30 human insulin (from UniProt P01308) (ligand) |
| 4.67 | A21G(GHEP)50, desB30 human insulin (from UniProt P01308) (ligand) |
| 6.5 | A21G(GPAQ)50, desB30 human insulin (from UniProt P01308) (ligand) |
| 10.1 | A21G(GPEH)50, desB30 human insulin (from UniProt P01308) (ligand) |
| 8.18 | A21G(GPEQ)50, desB30 human insulin (from UniProt P01308) (ligand) |
| 5.05 | A21G(GPQA)50, desB30 human insulin (from UniProt P01308) (ligand) |
| 6.53 | A21G(GPQE)50, desB30 human insulin (from UniProt P01308) (ligand) |
| 4.55 | A21G(GQAP)31, desB30 human insulin (from UniProt P01308) (ligand) |
| 3.49 | A21G(GQAP)56, desB30 human insulin (from UniProt P01308) (ligand) |
| 4.19 | A21G(GQAP)75, desB30 human insulin (from UniProt P01308) (ligand) |

| Receptor binding (hIRA) SPA, sup % relative to HI (% relative to HI) | Substance |
| --- | --- |
| 2.65 | A21G(GQAP)125, desB30 human insulin (from UniProt P01308) (ligand) |
| 2.87 | A21G(GQAP)150, desB30 human insulin (from UniProt P01308) (ligand) |
| 6.6 | A21G(GQE)67, desB30 human insulin (from UniProt P01308) (ligand) |
| 4.06 | A21G(GQEPGQHP)25, desB30 human insulin (from UniProt P01308) (ligand) |
| 7.83 | A21G(GQHE)50, desB30 human insulin (from UniProt P01308) (ligand) |
| 4.26 | A21G(GQPA)50, desB30 human insulin (from UniProt P01308) (ligand) |
| 4.09 | A21G(GQPE)50, desB30 human insulin (from UniProt P01308) (ligand) |
| 5.71 | A21G, A22A, A23Q, A24P(GAQP)37, desB30 human insulin (from UniProt P01308) (ligand) |
| 3.89 | A21G, A22A, A23Q, A24P(GAQP)62, desB30 human insulin (from UniProt P01308) (ligand) |
| 5.26 | A21G, A22P, A23Q, A24A(GPQA)49, desB30 human insulin (from UniProt P01308) (ligand) |
| 0.08 | A21G, A22Q, A23P(GQP)66, desB30 human insulin (from UniProt P01308) (ligand) |
| 4.98 | A21G, B1F(GQAP)100, desB30 human insulin (from UniProt P01308) (ligand) |
| 7.52 | A21Q(GAPQ)50, desB30 human insulin (from UniProt P01308) (ligand) |
| 5.09 | A21Q(GEPH)50, desB30 human insulin (from UniProt P01308) (ligand) |
| 8.54 | A21Q(GQEP)50, desB30 human insulin (from UniProt P01308) (ligand) |

The next lines start with the substance.

| Substance | Receptor binding (hIRA) SPA, sup % relative to HI (% relative to HI) |
| --- | --- |
| A14E, A21G(GEHP)50, B25H, desB30 human insulin (from UniProt P01308) (ligand) | 3.1 |
| A14E, A21G(GEPH)50, B25H, desB30 human insulin (from UniProt P01308) (ligand) | 3.3 |
| A21G(GAQP)50, desB30 human insulin (from UniProt P01308) (ligand) | 4.66 |
| A21G(GEPQ)50, desB30 human insulin (from UniProt P01308) (ligand) | 8.24 |
| A21G(GEQ)67, desB30 human insulin (from UniProt P01308) (ligand) | 8.48 |
| A21G(GEQH)50, desB30 human insulin (from UniProt P01308) (ligand) | 7.77 |
| A21G(GEQP)50, desB30 human insulin (from UniProt P01308) (ligand) | 9.04 |
| A21G(GHEQ)50, desB30 human insulin (from UniProt P01308) (ligand) | 6.7 |
| A21G(GHPE)50, desB30 human insulin (from UniProt P01308) (ligand) | 3.47 |
| A21G(GHQE)50, desB30 human insulin (from UniProt P01308) (ligand) | 9.41 |
| A21G(GPHE)50, desB30 human insulin (from UniProt P01308) (ligand) | 7.85 |
| A21G(GQA)67, desB30 human insulin (from UniProt P01308) (ligand) | 4.11 |
| A21G(GQAP)37, desB30 human insulin (from UniProt P01308) (ligand) | 5.33 |
| A21G(GQAP)44, desB30 human insulin (from UniProt P01308) (ligand) | 6.34 |
| A21G(GQAP)50, desB30 human insulin (from UniProt P01308) (ligand) | 4.56 |
| A21G(GQAP)62, desB30 human insulin (from UniProt P01308) (ligand) | 4.45 |
| A21G(GQAP)69, desB30 human insulin (from UniProt P01308) (ligand) | 4.2 |
| A21G(GQAP)100, desB30 human insulin (from UniProt P01308) (ligand) | 3.19 |
| A21G(GQEH)50, desB30 human insulin (from UniProt P01308) (ligand) | 5.99 |
| A21G, A22A, A23P, A24Q(GAPQ)49, desB30 human insulin (from UniProt P01308) (ligand) | 9.98 |
| A21G, A22A, A23Q, A24P(GAQP)49, desB30 human insulin (from UniProt P01308) (ligand) | 4.38 |
| A21G, A22P, A23A, A24Q(GPAQ)49, desB30 human insulin (from UniProt P01308) (ligand) | 5.7 |
| A21G, A22Q, A23A, A24P(GQAP)49, desB30 human insulin (from UniProt P01308) (ligand) | 4.92 |
| A21G, A22Q, A23P, A24A(GQPA)49, desB30 human insulin (from UniProt P01308) (ligand) | 5.53 |
| A21G, B1F(GQAP)50, desB30 human insulin (from UniProt P01308) (ligand) | 8.38 |
| A21Q(GEHP)50, desB30 human insulin (from UniProt P01308) (ligand) | 5.41 |
| A21Q(GQAP)50, desB30 human insulin (from UniProt P01308) (ligand) | 6.55 |
